This is an account of results in PMC8334859, “MIR156-Targeted SPL9 Is Phosphorylated by SnRK2s and Interacts With ABI5 to Enhance ABA Responses in Arabidopsis” (Frontiers in Plant Science, 2021).

The target of assay [1] is T1, ABI5-GST (Arabidopsis thaliana, UniProt Q9SJN0 1-442).
T1 construct: ABI5, Arabidopsis thaliana, At2g36270, full-length CDS in pGEX4T-1; printed both as ABI5-GST and as GST-ABI5; also called GST-ABI5; source: Escherichia coli transetta
T1 sequence (looked up): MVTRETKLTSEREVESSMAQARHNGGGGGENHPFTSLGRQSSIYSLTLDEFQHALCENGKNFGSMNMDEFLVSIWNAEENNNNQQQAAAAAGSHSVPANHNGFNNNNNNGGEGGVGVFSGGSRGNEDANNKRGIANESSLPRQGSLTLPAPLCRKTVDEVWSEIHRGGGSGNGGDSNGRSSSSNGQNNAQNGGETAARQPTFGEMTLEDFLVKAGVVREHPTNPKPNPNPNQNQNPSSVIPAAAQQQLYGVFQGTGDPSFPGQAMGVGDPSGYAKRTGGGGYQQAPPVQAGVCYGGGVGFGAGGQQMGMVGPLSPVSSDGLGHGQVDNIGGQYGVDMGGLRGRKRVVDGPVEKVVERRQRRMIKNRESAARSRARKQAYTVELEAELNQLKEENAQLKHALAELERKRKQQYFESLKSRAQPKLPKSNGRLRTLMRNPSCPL
The assay is described as follows: pull-down; in vitro; fusion proteins incubated with glutathione resin overnight in column buffer (20 mM Tris-HCl pH 7.5, 200 mM NaCl, 1 mM PMSF, 1 mM DTT); blots with anti-GST and anti-MBP. The conditions noted are these: both partners purified.

For assay [2], the target named is T1, ABI5-GST. The assay is described as follows: pull-down; in vitro; SPL3 and ABI5 fusion proteins incubated with amylose resin overnight in column buffer (20 mM Tris-HCl pH 7.5, 200 mM NaCl, 1 mM PMSF, 1 mM DTT); blots with anti-GST and anti-MBP. Conditions: both partners purified.

B1: MBP-SPL9 (natural protein, Arabidopsis thaliana, UniProt Q700W2 1-375, looked up)
chain: MEMGSNSGPGHGPGQAESGGSSTESSSFSGGLMFGQKIYFEDGGGGSGSSSSGGRSNRRVRGGGSGQSGQIPRCQVEGCGMDLTNAKGYYSRHRVCGVHSKTPKVTVAGIEQRFCQQCSRFHQLPEFDLEKRSCRRRLAGHNERRRKPQPASLSVLASRYGRIAPSLYENGDAGMNGSFLGNQEIGWPSSRTLDTRVMRRPVSSPSWQINPMNVFSQGSVGGGGTSFSSPEIMDTKLESYKGIGDSNCALSLLSNPHQPHDNNNNNNNNNNNNNNTWRASSGFGPMTVTMAQPPPAPSQHQYLNPPWVFKDNDNDMSPVLNLGRYTEPDNCQISSGTAMGEFELSDHHHQSRRQYMEDENTRAYDSSSHHTNWSL
notes: SPL9, Arabidopsis thaliana, At2g42200, full-length CDS in pMAL-c2X; source: Escherichia coli transetta, purified
Turning to B1, the binding result in assay [1] is reported as “binds”.

B2: MBP-SPL3 (natural protein, Arabidopsis thaliana, UniProt P93015 1-131, looked up)
chain: MSMRRSKAEGKRSLRELSEEEEEEEETEDEDTFEEEEALEKKQKGKATSSSGVCQVESCTADMSKAKQYHKRHKVCQFHAKAPHVRISGLHQRFCQQCSRFHALSEFDEAKRSCRRRLAGHNERRRKSTTD
notes: SPL3, Arabidopsis thaliana, At2g33810, full-length CDS in pMAL-c2X; source: Escherichia coli transetta
On to B2, for which, in assay [2], the binding result is recorded as “binds”.
